The assay has as its target T1, mouse RAG1 (aa 265–1040) (mouse, UniProt P15919 265-1040).
T1 sequence (looked up): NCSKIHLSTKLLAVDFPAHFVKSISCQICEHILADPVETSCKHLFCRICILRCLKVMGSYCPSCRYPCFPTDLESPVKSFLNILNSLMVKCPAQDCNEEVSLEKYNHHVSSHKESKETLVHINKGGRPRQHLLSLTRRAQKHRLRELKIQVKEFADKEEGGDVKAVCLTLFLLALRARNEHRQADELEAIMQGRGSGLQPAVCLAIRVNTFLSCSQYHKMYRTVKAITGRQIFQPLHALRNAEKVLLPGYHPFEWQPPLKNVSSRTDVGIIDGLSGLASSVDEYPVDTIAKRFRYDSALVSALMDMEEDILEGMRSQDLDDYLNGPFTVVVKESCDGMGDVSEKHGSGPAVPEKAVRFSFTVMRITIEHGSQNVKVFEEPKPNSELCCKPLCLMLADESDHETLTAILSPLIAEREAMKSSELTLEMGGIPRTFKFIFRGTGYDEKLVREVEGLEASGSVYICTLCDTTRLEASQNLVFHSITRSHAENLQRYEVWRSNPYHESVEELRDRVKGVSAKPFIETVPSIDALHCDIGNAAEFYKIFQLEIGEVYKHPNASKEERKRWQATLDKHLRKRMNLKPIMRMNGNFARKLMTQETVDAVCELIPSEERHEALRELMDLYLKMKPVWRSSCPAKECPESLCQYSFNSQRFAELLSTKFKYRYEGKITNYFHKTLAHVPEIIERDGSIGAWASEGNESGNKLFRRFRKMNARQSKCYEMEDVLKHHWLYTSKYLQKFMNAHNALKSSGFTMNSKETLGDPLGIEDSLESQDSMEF
The experiment in a line: cell-based or functional assay.

One molecule from publication PMC11844651, “How RAG1/2 evolved from ancestral transposases to initiate V(D)J recombination without transposition” (Research Square, 2025) can be followed below.

B1: mouse T490A RAG2 (aa 1–520) (natural protein, UniProt P21784 1-520, looked up)
chain: MSLQMVTVGHNIALIQPGFSLMNFDGQVFFFGQKGWPKRSCPTGVFHFDIKQNHLKLKPAIFSKDSCYLPPLRYPATCSYKGSIDSDKHQYIIHGGKTPNNELSDKIYIMSVACKNNKKVTFRCTEKDLVGDVPEPRYGHSIDVVYSRGKSMGVLFGGRSYMPSTQRTTEKWNSVADCLPHVFLIDFEFGCATSYILPELQDGLSFHVSIARNDTVYILGGHSLASNIRPANLYRIRVDLPLGTPAVNCTVLPGGISVSSAILTQTNNDEFVIVGGYQLENQKRMVCSLVSLGDNTIEISEMETPDWTSDIKHSKIWFGSNMGNGTIFLGIPGDNKQAMSEAFYFYTLRCSEEDLSEDQKIVSNSQTSTEDPGDSTPFEDSEEFCFSAEATSFDGDDEFDTYNEDDEDDESVTGYWITCCPTCDVDINTWVPFYSTELNKPAMIYCSHGDGHWVHAQCMDLEERTLIHLSEGSNKYYCNEHVQIARALQAPKRNPPLQKPPMKSLHKKGSGKVLTPAKKS
Regarding B1, the “RSS DNA hairpinning (pre-nicked RSS substrates) with the long (21 aa) H3K4me3 peptide (1 μM) against no peptide” value was < 2 fold and the “transposition of SEC into supercoiled pUC19 (double-ended joint product) with the long (21 aa) H3K4me3 peptide (20 μM) against no peptide” value was 22 fold.
